Experimental data as given in patent JP2023014062A (dated 2023).

B1: 抗体NCV2SG48(Fab) (Fab, V domains shown)
VH: EVQLVESGGGLIQPGGSLRLSCAASGFIVSRNYMNWVRQAPGKGLEWVALIYSGGSTFYADSVKGRFTISRDNSKNTLYLQMNSLRAEDTAVYYCARDLVVYGLDYWGQGTLVTVSS
VL: AIQLTQSPSSLSASVGDRVTITCRASQGISSHLAWYQQKPGKAPKLLIFAASTLQSGVPSRFSGSGSGTDFTLTISSLQPEDFATYYCQHLNSNPPITFGQGTRLEIK
notes: also called Fab(抗体NCV2SG48)
B2: 抗体NCV2SG53(Fab) (Fab, V domains shown)
VH: QVQMVESGGGLVRPGGSLRLSCAASGFTFSDYYMSWIRQAPGKGLEWISYISSSGSSMNYADSVKGRFTISRDNAKNSLFLQMNSLRAEDTAVYYCAREFDLTKIIMVPPYWGQGTLVTVSS
VL: AIQLTQSPSSLSASVGDRVTITCRASQGISSYLAWYQQKPGKAPKVLIYAASTLQSGVPSRFSGSGSGTDFTLTISSLQPEDFATYYCQQLKSYPLTFGGGTKVEIT
notes: also called Fab(抗体NCV2SG53)
B3: 抗体NCV2SG53 (antibody, V domains shown)
VH: QVQMVESGGGLVRPGGSLRLSCAASGFTFSDYYMSWIRQAPGKGLEWISYISSSGSSMNYADSVKGRFTISRDNAKNSLFLQMNSLRAEDTAVYYCAREFDLTKIIMVPPYWGQGTLVTVSS
VL: AIQLTQSPSSLSASVGDRVTITCRASQGISSYLAWYQQKPGKAPKVLIYAASTLQSGVPSRFSGSGSGTDFTLTISSLQPEDFATYYCQQLKSYPLTFGGGTKVEIT

What was measured:
[1] = target: T1, SARS-CoV-2(従来株(武漢株))のSタンパク質のRBDタンパク質 (SARS-CoV-2(従来株(武漢株)), UniProt P0DTC2 322-536); assay: X-ray crystal structure of the RBD-Fab complex
T1 construct: range 322-536

[2] = target: T1, SARS-CoV-2(従来株(武漢株))のSタンパク質のRBDタンパク質; assay: ELISA, RBD coated at 2 μg/ml, Expi293 culture supernatant, HRP anti-human IgG

Binder	binding result [1]	binding result [2]
B1	binds	–
B2	binds	–
B3	–	binds
